This note sets out measurements from a protein production outcome set (Wang et al. 2014).

This series in a line: label from the status in PepcDB records.
As for “MKDSIDFGNMEIPRLFRKLLIPTVLGMVFSAVFVITDGIFVGKGIGSDALAAVNITAPLFMITTGIGLMFGVGASVVASIHLSQGKRKVASINITQALAFSALLILVLSALCCYFAEPIGRLLGSSERLLPLVVEYMNWYVPFLVFYLLLSAGMFYIRLDGSPNYAMMCNAVSAIINIILDYVFIFQLGWGMMGAAFATSLGTMVGGLMTLIYLLRFSRNVGIYRIKLSRKSMRLTCRNIGYMIRLGSSAFISEASIASMMFLGNYVFISHLGESGVAAFSIVCYFFPIIFMVYNAIAQSAQPIISYNFGQQNPGRVARTIRLALKTALGCGIFFFAATLVFNHQIVGLFIDKSYQAYDIAVNGIPYFAVGYLFFALNIVGIGYYQSIERARRATVITLFRGTLFMLAGFLLLPPVLGVRGIWLAVPLAELLTLLLIIGIYLKDSFAVRR”, the protein production result is on record as “failed”.

As for “MAKKKNVSVISVEKPTWFPLTDETGAFPVYGAPITIGTAVSIKPDVTTETTPDYGDSVVQDQYVAFGGAEVTLETNGYQNEVLAEITGGKKLKGGVLRSADDIASDGAFAYRRRKSNGKYRYTIFYKGKFALTSDETSTLEGSSVSYTHPEWTGSFVDVPGLGYMYSVDEDDEGVDLEMIKNWFTEVMDPRKENTTAVTGVTLDQTELNLKVGQTATLTPTITPDNASNKKYQFRSESEAIGTVTPIQGKVTAVGEGTTEIVVTTEDGNFTAKCTLNVTTADLEHHHHHH”, the protein production result is recorded as “failed”.

On to “MNHRDKQIDSGSGSGENRRTYDCDICKRGFTNPQALGGHNNIHRRERERYPSSSSSSHSFPFSLPLPSQSPSSSTNFTNPPPYFPTIESYLHQGSQPPINPSHNTQYFGSSSSSRGGGRFAQGASHDLNLSLGLGSMNEDDDTHRSPPETGGSQPQDGDLDLDLRLGGHRHH”, for which the protein production result is “failed”. For the sequence “TWTDIRYREEGNAGFLSFSFPGGAMSTAQCRRLLDAYRDACTRPTSVLVLGGERDFFSNGIHLNVIEAADDPGAESWANINAIDDLVEAVLTTTDR”, the protein production entry is recorded as “failed”. The entry for “MFVELNNLLNTTPDRAEQGKLTLLCDAKTDGSFLVHHFLSFYLKANCKVCFVALIQSFSHYSIVGQKLGVSLTMARERGQLVFLEGLKSAVDVVFQAQKEPHPLQFLREANAGNLKPLFEFVREALKPVDSGEARWTYPVLLVDDLSVLLSLGMGAVAVLDFIHYCRATVCWELKGNMVVLVHDSGDAEDEENDILLNGLSHQSHLILRAEGLATGFCRDVHGQLRILWRRPSQPAVHRDQSFTYQYKIQDKSVSFFCQRNVSCCSVT” is “not failed”; for “MTVKAMALNTNQLFAYLNRGDIAEFKFSPLFTTLFFPNVATFSTQNIMLDTLDIEEVTMSAFCSPMVGSQVQRDKGYETSTIKPGYMKPKHEIDPTKTIMRMAGEDPAQLNDPTYRRMRLITGNMRRQINAIKARVEWLAVNAVTTGKNIIEGEGIERYEIDWKIPEKNIIEQADGKKWSEQDKETHYPIYDIELYADQAGCPANVMIMGAEVWRTLRSFKKFRELYDLSRGSESAAELACKNLGEVVSFKGYLGDLALIVYSGKYTDSDGTEKYFLEPDLLVLGNTNNKGLVAYGAIMDQEAVRTGATQNMFYPKNWIEDGDPAIEYVQTHSAPQPVPADIRKFVTVKIA” it is “not failed”. The result for “MKRKVQVKNITIGEGRPKICVPIIGKNKKDIIKEAKELKDACLDIIEWRVDFFENVENIKEVKEVLYELRSYIHDIPLLFTFRSVVEGGEKLISRDYYTTLNKEISNTGLVDLIDVELFMGDEVIDEVVNFAHKKEVKVIISNHDFNKTPKKEEIVSRLCRMQELGADLPKIAVMPQNEKDVLVLLEATNEMFKIYADRPIITMSMSGMGVISRLCGEIFGSALTFGAAKSVSAPGQISFKELNSVLNLLHKSIN” reads “not failed”; that for “QIGVPPSGPMDDLSFRLGNTALGNPEGAPGLEFTMAGPALRFTHATTVCVTGADVTVTVNGNTANTWEPITVPENGLLDVGSADGSGLRGYILFEGGLDVPRYLGSASTFTLGQFGGHGGRVLRTSDVLRTVSDHLPETVPGVVPEESRPALTSDWELKVVEGPHGAPEFFEREDIEELYAAEYEVHFNSARTGVRLIGPKPRWARNDGGEAGLHPSNIHDTAYSVGALDFTGDTPILLGPDGPSLGGFVCPVTVVTGERWKLGQLRPGDKVRFVPIRSVEAPSVKELGAAR”, “failed”; that for “MLDSRQAVFFRFFFGVLPQSGRGQVMTELARTIVAGVGGADNIVSLMHCATRLRFKLKDESKAQAEVLKKTPGIIMVVESGGQFQVVIGNHVADVFLAVNSVAGLGEKAQQAPENDDKGNLLNRFVYVISGIFTPLIGLMAATGILKGMLALALTFQWTTEQSGTYLILFSASDALFWFFPIILGYTAGKRFSGNPFTAMVIGGALVHPLILTAFENGQKVDALGLDFLGIPVTLLNYSSSVIPIIFSAWLCSILERRLNAWLPSAIKNFFTPLLCLMVITPITFLLVGPLSTWISELIAAGYLWLYQAVPAFAGAVMGGFWQIFVMFGLHWGLIPLIINNFTVLGYDTMIPLLMPAIMAQVGAALGVFLCERDAQKKVVAGSAALTGLFGITEPAVYGVNLPRKYPFVIACISGALGATIIGYAQTKVYSFGLPGIFTFMQTIPSTGIDFTVWASVIGGVIAIGCAFVGTVMLHFITAKRQSAQVAQQEKTPEVITPEQGGICSPMTGEIVPLIHVADTTFASGLLGKGIAIMPSVGEVRSPVAGRIASLFATLHAIGIESDDGVEILIHVGIDTVKLDGKFFSAHVNVGDKVNTGDRLISFDIPAIREAGFDLTTPVLISNSDDFTDVLPHGTAQINAGEPLLSIIR”, “failed”. The result for “MKHYEVEILDAKTREKLCFLDKVEPHATIAEIKNLFTKTHPQWYPARQSLRLDPKGKSLKDEDVLQKLPVGTTATLYFRDL” reads “not failed”. Take “MKNVLYTLFAISICLMLGKLANYLLAALPASLYGMIIYALFLQLNWFSPDKITKTNQWFIKHMGVCLVPAGMGIINHFQLIQQHGIALVVIIFSSTFILLTVIGYLSERYLITPDNIKSKAPTGSR”: the protein production entry was “failed”. The entry for “MRDPRLAPFRAPALAFAALLLVSAASGAVLFVLKLGTTAARVQEFYLGSEARFTAPRTLGGILEVAVPHLVAVPLVLFAVAHLVAFTRALRPRPYAALVRLSFGCALAGALAGLGIRFVAPWLAWVKIGAFVGLEAALLAWAALLVGLFLPDRAEAHARRAAAADGASPQRVPGAPRRD” is “failed”; for “MNVLFTSVPQEDVPFYQEALKDLSLKIYTTDVSKVPENELKKAELISVFVYDKLTEELLSKMPRLKLIHTRSVGFDHIDLDYCKKKGILVTHIPAYSPESVAEHTFAMILTLVKRLKRIEDRVKKLNFSQDSEILARELNRLTLGVIGTGRIGSRVAMYGLAFGMKVLCYDVVKREDLKEKGCVYTSLDELLKESDVISLHVPYTKETHHMINEERISLMKDGVYLINTARGKVVDTDALYRAYQRGKFSGLGLDVFEDEEILILKKYTEGKATDKNLKILELACKDNVIITPHIAYYTDKSLERIREETVKVVKAFVKGDLEQIKGNFVVGPS” it is “not failed”; for “MTDEDSEANALADPDNPPLSAEQLASAPRMPRIKIIRRALKLTQEEFSARYHIPLGTLRDWEQGRSEPDQPARAYLKIIAVDPEGTAAALRKGAT” it is “not failed”. The result for “MLPIYTGSAIQCPMRLDAYLVEMGHFKSRGRAKTAILDGKVKVNGIAVTKVSRDVSIDDTIEVAEGLDQPQGYFKLKYVQEESGVLKPGDRVLDLGSSAGGFLLFASEIADHVKGIEFSRDFRSELGKIAYERENVEIIFGDVFTIPLKELSEEPVDVILSDMTLEPEDSIKALSRMLPLLKEGGRLLQVIKIPKKKNPKPILSRIENLGLEIQQVLSSEKQEIYVVAKRPFLEGKESTEENE” reads “failed”; that for “MQSFFDREFTFDRTARLFFIILLVGGIMAIVIGLRGILIPFCLSWILAYVLMPLVRFVQYRLHFRFRFLSVITVLVFISALIFFAILSLVPAVEEEVSKTITLLQQYRIDENLLQMLPAPIRKFLSESGSMNDLFKGISYEKLMENSKEIFGQLNKLVSGTISLFSYTTIFFIGVLYFIFILFDFEKLGKGFVNLFPVGHRIRVRSILKEVDKNMNSYFRGQALIALCVGILLSIGYKIIDFPLGVTLGLFIGMLNLIPYLQIVGLIPIVFLSVLKAAQTGQNFFVVLALGIGVMMIVQVIQDTILTPNIMGKRMGMSPAMILLSISIWGSLLGFFGLFIALPLTMSLYSVYKRYVIQDPKFIREENEETMPKKGLFRKHSRKEEK”, “failed”; that for “MSDIVLEVQSLHVYYGAIHAIKGIDLKVPRGQIVTLIGANGAGKTTTLSAIAGLVRAQKGKIIFNGQDITNKPAHVINRMGIALVPEGRRIFPELTVYENLMMGAYNRKDKEGIKRDLEWIFSLFPRLKERLKQLGGTLSGGEQQMLAIGRALMSRPKLLMMDEPSLGLAPILVSEVFEVIQKINQEGTTILLVEQNALGALKVAHYGYVLETGQIVLEGKASELLDNEMVRKAYLGVA”, “not failed”. The result for “MPVRVSLELLRVGHCRHCERMVRADGHWHAVEFPALSVLIRHPQRGALLYDTGYAAHFFRATDAWPERLYRLTTPVRLPAHETLGAQLSKRGVALDDIAWCLISHFHADHVGGLRDLPNARFMCSRADHQQLRSCSRVGGLRRALLPQLLPDDFDQRLQFADQAPQRALTGAWQGLGPAYDLFEDGSVLAVSLPGHVPGQMGLRVRDQHDREVLLCADAVWSSATWATLQWPAWPTRLLMHDWHAFQRTVHRLHALSHAHPELAILPSHCQPSLDRYQPEWR” reads “failed”; that for “MGNHFSKLGFVLAALGSAIGLGHIWRFPYMTGVSGGGAFVLLFLFLSLSVGAAMFIAEMLLGQSTQKNVTEAFKELDINPKKRWKYAGLLLVSGPLILTFYGTILGWVLYYLVSVSFNLPNNIQESEQIFTQTLQSIGLQSIGLFSVLLITGWIVSRGIKEGIEKLNLVLMPLLFATFFGLLFYAMSMDSFSKAFHFMFDFKPKDLTSQVFTYSLGQVFFSLSIGLGINITYAAVTDKTQNLLKSTIWVVLSGILISLVAGLMIFTFVFEYGANVSQGTGLIFTSLPVVFGQMGAIGILVSILFLLALAFAGITSTVALLEPSVMYLTERYQYSRFKVTWGLVALIFVVGVVLIFSLHKDYKDYLTFFEKSLFDWLDFASSTIIMPLGGMATFIFMGWVLKKEKLRLLSVHFLGPKLFATWYFLLKYITPLIVFSIWLSKIY”, “failed”; that for “MAYDLWYWDGIPGRGEFVRLALEAGKIPYRDRAREPGEDMLADMRRRRDTAPFAPPYLVADGMTIAQTANILLFLGVEHGLAPPDRAGRLWVNQLQLTIADLTAEAHDVHHPVAAGLYYEDQQDVALRRAADFRETRMPKFMQYFEQALDRPGGWLTDMGRWSYADLSLYHVVEGLLHAFPRRMRTLMHRYPRLMTLHARVAELPELRGYLASDRRLPFGDGIFRHYPELDGA”, “failed”. Turning to “MGGDLRKCSFIKLEAHQNRVMTCVWCNKKGLLATSGNDGTIRVWNVTKKQYSLQQTCVFNRLEGDAEESLGSPSDPSFSPVSWSISGKYLAGALEKMVNIWQVNGGKGLVDIQPHWVSALAWPEEGPATTWSGESPELLLVGRMDGSLGLIEVVDVSTMHRRELEHCYRKDVSVTCIAWFSEDRPFAVGYFDGKLLMGTKEPLEKGGIVLIDAHKVKTIFFMLAFLFCLVFCVYVF”, the protein production result is “failed”. With “MRQRDDSKRIAFLEATVREVADHGFSATSVGKIAKAAGLSPATLYIYYEDKEQLLLATFYYVSDQVIDAALDSFSRGKDLREGLRRQWHTLFRIGLERPELFRYHETFTHSAWMTPEIQARNESRAANLLNAVDQGKQSGLIKPVPFPLLETFMFRPIYHLVQRCLQGSFEGTDEHIELAFNMAWDAVADRRNT”, the protein production result is reported as “not failed”.

On to “MNKERGMKGTCLCGAIEVIAEPKNEVSLCHCSMCRKWSSGALHAVHCGPEVTFKGAEPKRYQSSDWAVRGFCGECGTNLFYHLLPTNEYILSAGLFDNPDFKLTLEIFTDEKPGYYELNPHSKKMTAQEVYDQFVPKE”, for which the protein production result is “failed”.
